Experimental data: patent publication US12275803B2, “Functionalization of biopolymers with growth factor-binding peptides” (Universiteit Twente, priority 2016, dated 2025)

Tests used:
[1] = system: TGFB1 reporter cell line (Mink Lung Epithelium Cells, PAI-1 promoter luciferase); test: Luciferase assay in TGFB1 reporter cell line; type: cell-based; parameters: dose or concentration left out as unconfirmed; conditions: cells on films with immobilized hTGFB1
Method: MLECs were seeded at 64000 cells/cm^2 and allowed to attach overnight at 37° C. in a 5% CO2 incubator. The medium was then replaced by DMEM without FBS and cells incubated for an additional period of 24 hours. Cells were lysed and the luciferase quantified according to the manufacturer's protocol (Promega, E4530). Luciferase values were normalized for DNA content quantified by CyQuant Cell proliferation assay (Invitrogen).

HUVECs = test: Cell survival of HUVECs after starvation; type: cell-based, human; conditions: 20 ng/mL hVEGF in medium during 24 hours starvation; versus native films without hVEGF
Method: Samples were incubated with 1 μg/mL of VEGF (PeproTech) in 0.5% (v/v) PBS TWEEN®20 (PBST) for one hour with gentle agitation. The films were then washed three times for 10 minutes with 0.5% (v/v) PBST and then with PBS for a further 10 minutes. Next, the films were blocked for one hour with PBS containing 1% (w/v) bovine serum albumin (BSA) and subsequently washed as described above. Afterwards, the films were incubated with a primary antibody (2 μg/mL; rabbit polyclonal anti-human VEGF, PeproTech) in the blocking solution during one hour with agitation. The films were washed as mentioned above and then incubated with a secondary antibody (8 μg/mL; goat anti-rabbit ALEXA FLUOR® 594, Invitrogen) in PBS containing 1% w/v BSA for one hour with gentle agitation. Before image acquisition, the films were washed three times for 10 minutes with […], rinsed three times with PBS and dried under a N2 stream. Fluorescence intensity was quantified using ImageJ. […]
HUVECs at passage 4 were used for experiments. […] Once detached, fresh medium was added to neutralize the trypsin and the cells were counted. […] After 24 hours, the cells were lysed and the DNA content was quantified by CyQUANT cell proliferation assay (Invitrogen), following the manufacturer's instructions.

[2] = system: BMP-2 reporter cell line (C2C12 Luc, ID1 promoter luciferase); test: Luciferase assay in BMP-2 reporter cell line; type: cell-based; conditions: 2 ng/mL inhibitor; response to immobilized hBMP-2
Method: For cell experiments, the sterile films were washed three times with PBS and incubated with concentrated hBMP-2 in PBS for one hour with gentle agitation. Subsequently, the films were extensively washed with TBST (0.5%) and PBS to remove any traces of the washing buffer prior to cell seeding.
C2C12 Luc express luciferase under the control of a ID1 promoter—a BMP-2 target gene (Zilberberg et al., 2007, BMC Cell Biol. 8(41). DOI: 10.1186/1471-2121-8-41).
C2C12 Luc were seeded on films at 16,000 cells/cm2 in DMEM medium supplemented with 10% FBS and allowed to attach overnight at 37° C. in a 5% CO2 incubator. The cells were lysed the following day and the luciferase quantified according to the manufacturer's protocol (Promega, E4530). Luciferase values were normalized for DNA content quantified by CyQUANT cell proliferation assay (Invitrogen).

Molecule: Cc1cccc(-c2[nH]c(C(C)(C)C)nc2-c2ccc3c(c2)OCO3)n1.Cl [SB-431452, 2-(5-benzo[1,3]dioxol-5-yl-2-tert-butyl-3H-imidazol-4-yl)-6-methylpyridine hydrochloride]
- luciferase activity in presence of TGF-β1 inhibitor [1]: completely suppressed

B1: soluble VEGF: soluble hVEGF added to the medium during starvation (protein)
chain: APMAEGGGQNHHEVVKFMDVYQRSYCHPIETLVDIFQEYPDEIEYIFKPSCVPLMRCGGCCNDEGLECVPTEESNITMQIMRIKPHQGQHIGEMSFLQHNKCECRPKKDRARQENPCGPCSERRKHLFVQDPQTCKCSCKNTDSRCKARQLELNERTCRCDKPRR
- survival of HUVECs (total amount of DNA) with soluble VEGF (HUVECs): significant increase in the amount of DNA

B2: Noggin: specific BMP-2 inhibitor (protein, UniProt Q13253 28-232, looked up)
Noggin: QHYLHIRPAPSDNLPLVDLIEHPDPIFDPKEKDLNETLLRSLLGGHYDPGFMATSPPEDRPGGGGGAAGGAEDLAELDQLLRQRPSGAMPSEIKGLEFSEGLAQGKKQRLSKKLRRKLQMWLWSQTFCPVLYAWNDLGSRFWPRYVKVGSCFSKRSCSVPEGMVCKPSKSVHLTVLRWRCQRRGGQRCGWIPIQYPIISECKCSC
- luciferase activity in presence of BMP-2 inhibitor [2]: completely suppressed
